# Experiments:
# AP endonuclease 1 (APE1) = AP endonuclease 1 (APE1) (human, UniProt P27695 1-318); assay: fluorescence titration; TAF-APE1; 10 mM EDTA; n 1.15; 50 mM HEPES pH 8.0, 100 mM NaCl, 4 mM DTT (+10 mM EDTA for APE1); labelled protein from 20 nM; temperature not stated; conditions: protein: recombinant; tags: TAF- or FAM-labelled (terminal amino group primarily); blunt outer ends, 1-nt gap; upstream 15-mer + downstream 16-mer on 32-mer template
# [1] = target: T1, DNA polymerase beta (Polβ) (rat, UniProt P06766 1-335); assay: fluorescence titration; TAF-Polβ; n 0.94; 50 mM HEPES pH 8.0, 100 mM NaCl, 4 mM DTT (+10 mM EDTA for APE1); labelled protein from 20 nM; temperature not stated
# [2] = target: T1, DNA polymerase beta (Polβ); assay: fluorescence titration; FAM-Polβ; n 1.3; 50 mM HEPES pH 8.0, 100 mM NaCl, 4 mM DTT (+10 mM EDTA for APE1); labelled protein from 20 nM; temperature not stated
# XRCC1 = XRCC1 (human, UniProt P18887 1-633); assay: fluorescence titration; TAF-XRCC1; n 0.90; 50 mM HEPES pH 8.0, 100 mM NaCl, 4 mM DTT (+10 mM EDTA for APE1); labelled protein from 20 nM; temperature not stated; conditions: protein: recombinant; tags: TAF-labelled; blunt outer ends, 1-nt gap; upstream 15-mer + downstream 16-mer on 32-mer template
binder,measurement,setting,value
"gap-DNA (dsDNA, 5'-phosphate on downstream primer) DNA 1: GGCGATTAAGTTGGG DNA 2: AACGTCAGGGTCTTCC DNA 3: GGAAGACCCTGACGTTACCCAACTTAATCGCC",apparent K (half saturation),AP endonuclease 1 (APE1),25 ± 3 nM
same,apparent K (half saturation),[1],30 nM
same,apparent K (half saturation),[2],23 nM
same,apparent K (half saturation),XRCC1,25 ± 4 nM

# Reference: paper PMC4499159, “Quantitative characterization of protein–protein complexes involved in base excision DNA repair”
